Experimental data taken from patent publication US20260184814A1, “BROADLY NE[…] INFLUENZA NEURAMINIDASE” (priority 2022, published 2026).

How the values were obtained:
[1] = molecular target: N2 A/HongKong/2671/2019 N245S (Influenza A virus (H3N2))
[2] = molecular target: N2 A/Tanzania/205/2010 S245N 247T (Influenza A virus (H3N2))
[3] = molecular target: N2 A/Switzerland/8060/2017 N245S (Influenza A virus (H3N2))

1G01 Fab
Kd [1]: 375 nM | Kd [2]: < 0.02 nM | Kd [3]: 398 nM
